According to paper PMC9242648, “Hypertrophic cardiomyopathy mutations in the pliant and light chain-binding regions of the lever arm of human β-cardiac myosin have divergent effects on myosin function” (eLife, 2022):

T1: human β-cardiac myosin 2-hep heavy chain, wild type (human | )
T1 chain: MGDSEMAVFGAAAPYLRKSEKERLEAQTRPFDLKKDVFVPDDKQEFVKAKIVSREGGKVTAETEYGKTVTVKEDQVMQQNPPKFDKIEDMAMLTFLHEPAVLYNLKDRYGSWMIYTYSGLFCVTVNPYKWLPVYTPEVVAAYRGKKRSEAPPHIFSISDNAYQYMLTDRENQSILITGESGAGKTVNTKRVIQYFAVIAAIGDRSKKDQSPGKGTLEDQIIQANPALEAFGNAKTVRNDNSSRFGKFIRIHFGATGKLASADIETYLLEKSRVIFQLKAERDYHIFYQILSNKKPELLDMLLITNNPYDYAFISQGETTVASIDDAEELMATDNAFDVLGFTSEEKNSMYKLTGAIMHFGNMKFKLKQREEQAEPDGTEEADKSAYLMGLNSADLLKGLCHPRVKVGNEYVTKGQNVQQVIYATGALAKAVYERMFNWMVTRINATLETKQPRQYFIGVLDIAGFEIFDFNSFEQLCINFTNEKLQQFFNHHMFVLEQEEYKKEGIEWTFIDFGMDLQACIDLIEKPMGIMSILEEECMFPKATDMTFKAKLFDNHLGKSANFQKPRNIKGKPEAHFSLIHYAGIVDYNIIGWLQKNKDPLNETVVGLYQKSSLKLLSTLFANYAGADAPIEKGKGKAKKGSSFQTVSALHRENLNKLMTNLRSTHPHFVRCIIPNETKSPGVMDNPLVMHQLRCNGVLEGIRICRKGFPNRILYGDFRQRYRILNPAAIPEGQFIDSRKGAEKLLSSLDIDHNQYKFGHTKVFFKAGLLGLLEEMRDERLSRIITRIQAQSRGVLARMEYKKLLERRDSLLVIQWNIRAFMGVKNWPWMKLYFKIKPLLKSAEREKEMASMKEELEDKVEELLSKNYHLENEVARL


Experiments:
[1] = biological target: T1, human β-cardiac myosin 2-hep heavy …; test: light chain loading gel assay (Coomassie SDS-PAGE densitometry of the co-purified complex); ELC co-expressed with the 2-hep heavy chain in C2C12 cells and purified through the FLAG tag of the ELC; buffer exchanged 5x in a 50 or 100 kDa filter to remove unbound light chains; dilution series 10-1 pmol per lane, 700 nm scan, slope of light chain over slope of heavy chain; conditions: partners not purified
[2] = biological target: T1, human β-cardiac myosin 2-hep heavy …; test: light chain loading gel assay (Coomassie SDS-PAGE densitometry of the co-purified complex); human RLC purified from E. coli added to myosin held on anti-FLAG resin after depletion of native mouse RLC (>2.5 hr, 4°C); buffer exchanged 5x in a 50 or 100 kDa filter to remove unbound light chains; dilution series 10-1 pmol per lane, 700 nm scan, slope of light chain over slope of heavy chain; conditions: both partners purified

| ELC/HC ratio (Coomassie band density, light chain over heavy chain) [1] | RLC/HC ratio (Coomassie band density, light chain over heavy chain) [2] | Binder |
| --- | --- | --- |
| 0.19 | – | human essential light chain (MYL3) (natural protein, human essential light chain, MYL3; N-terminal FLAG tag followed by a TEV protease site; TEV protease cleaved the ELC-myosin complex off the anti-FLAG resin; also called ELC; not shown: FLAG, N-terminal, cleaved) not shown |
| – | 0.11 | human regulatory light chain (MYL2) (natural protein, UniProt P10916 1-166, looked up, human regulatory light chain, MYL2; N-terminal His-TEV tag added; also called RLC; source: E. coli, purified (as in Nag et al., 2017)) MAPKKAKKRAGGANSNVFSMFEQTQIQEFKEAFTIMDQNRDGFIDKNDLRDTFAALGRVNVKNEEIDEMIKEAPGPINFTVFLTMFGEKLKGADPEETILNAFKVFDPEGKGVLKADYVREMLTTQAERFSKEEVDQMFAAFPPDVTGNLDYKNLVHIITHGEEKD |
